According to the supplement of paper PMC11865577:

Tests used:
Assay in all cases: pull-down binding Z-score (relative to library population); higher = stronger binding
[1] = test system: TO-N3-2 (biotin conjugate); conditions: RNA library: Library-2
Outline: (§1)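 Biotin-conjugated small molecule (100 pmol) on streptavidin beads was incubated with 1 μg of heat-folded Cy5- or Cy3-end-labelled RNA library in phosphate/NaCl/KCl buffer at 25 °C for 60 min. Following three washes, RNA was eluted with hot SDS and hybridised at 55.5 °C for 20 h to a DNA barcode microarray. The binding value is a Z-score computed from the library mean and standard deviation, after subtraction of beads without compound and averaging of barcoded replicate probes with the highest and lowest excluded.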

[2] = test system: TO-3-N3-2 (biotin conjugate); conditions: RNA library: Library-2
Outline: as §1

TO-N3 (biotin conjugate) = conditions: RNA library: Library-2
Outline: as §1

[3] = test system: G-clamp-N3 (biotin conjugate); conditions: RNA library: Library-1 (pre-miRNA loops + repeats)
Outline: as §1

[4] = test system: TO-3-N3 (biotin conjugate); conditions: RNA library: Library-2
Outline: as §1

Sequence | pull-down binding Z-score [1] | pull-down binding Z-score [2] | pull-down binding Z-score (TO-N3 (biotin conjugate)) | pull-down binding Z-score [3] | pull-down binding Z-score [4]
GACAAUAUGUAUAAUGUUCAUAAGUCAUUC [hsa-mir-384] | -0.0426 | 0.227 | 0.444 | 0.231 | 0.197
AGGCAUGGGUGGCU [hsa-mir-8085] | 0.625 | 0.062 | 0.428 | 0.379 | 0.237
UUUUCCUGAGAAUAAGAGAAGGAAGG [hsa-mir-4455] | 0.75 | -0.0611 | 0.0683 | -0.563 | -0.477
UUUCUGUUGUCUGAAAGAAAAGAAC [hsa-mir-523] | 0.513 | 0.0657 | -0.0983 | -0.976 | -0.301
GGAAUCCUACGUGAGGGACAAUCAUUCAGACCCACGUAGCAGUGUUCU [hsa-mir-1299] | 0.496 | 0.392 | 0.632 | 0.0519 | 0.353
GAGUUUGGGAUUUGAAAAAACC [hsa-mir-181a-2] | 0.793 | 0.292 | 0.394 | 0.843 | 0.253
AGUUCGCUUUUAUUAAUGACGAAUA [hsa-mir-410] | -0.121 | -0.0101 | -0.628 | -0.994 | -0.624
UUGUAAUAGUGUAGAAUGUUGGUUAAC [hsa-mir-591] | 0.44 | 0.537 | 0.358 | 0.797 | -0.133
ACCAUAUCUAAGCUAAUGUGGUGGU [hsa-mir-876] | -0.259 | 0.00992 | -0.139 | 0.651 | -0.157
AGAAGACCU [hsa-mir-378g] | 0.244 | 0.241 | 0.403 | 0.213 | 0.421
UGGGUAGGAAUAUCCUGGAUCCCCU [hsa-mir-3189] | 0.501 | 0.312 | 0.102 | -0.575 | -0.0266
AAGGUGGAGUUCUGGGUGCUGUUUUCCCACUCU [hsa-mir-378i] | 0.429 | 0.299 | 0.173 | -0.335 | 0.0547
CACACAUACAUAUAUAUAUGUUUG [hsa-mir-3149] | -0.501 | 0.18 | 0.379 | -0.604 | 0.618
UCCACACUGACAAGGGCCGUGGGG [hsa-mir-3191] | 0.967 | 0.217 | 1.19 | -0.843 | 1.19
GUUGGCUCAAGAAAGGGAGAUAGAUGGUAGCCC [hsa-mir-6884] | 3.94 | 1.51 | 1.94 | 0.473 | 1.71
CUUUCUGUUGUCUGAAAGAAAAGAAAA [hsa-mir-522] | 0.775 | 0.118 | 0.617 | -0.228 | -0.109
CGUGCACGUACCUGUCACAUGUGUACG [hsa-mir-3939] | -0.599 | -0.599 | -0.867 | -0.021 | -0.72
UGGACUGUGUACCAAUUUCCA [hsa-mir-194-1] | -0.471 | -0.379 | -0.21 | 0.055 | -0.134
UCCCAGCCACUCUGGAGG [hsa-mir-4419b] | 0.631 | -0.194 | 0.44 | 0.653 | 0.274

Sequence | pull-down binding Z-score [1] | pull-down binding Z-score [2] | pull-down binding Z-score (TO-N3 (biotin conjugate)) | pull-down binding Z-score [3] | pull-down binding Z-score [4]
CAUGAGCCCUUUGGAAAGGUCUCGUG [hsa-mir-4711] | -0.478 | -0.105 | 0.16 | -0.633 | 0.395
GUAAGAGAGACUCUCGCUUCCUGC [hsa-mir-874] | 0.462 | -0.291 | 0.169 | -1 | 0.0696
UUUCUGUUGUCUGAAAGAAGAGAAA [hsa-mir-526b_518a-1] | -0.584 | -0.214 | -0.697 | 0.288 | -0.47
CGCGCGUCGAGUCAGCCGUGUG [hsa-mir-933] | 0.532 | -0.276 | 0.126 | 1.31 | -0.126
UGCUGUGCUGUGCUGAGCAGGGCUGAGCUG [hsa-mir-4539] | 1.46 | 0.178 | 1.07 | 0.347 | 0.29
GCUUUAUGUCCUGACCCAGCUAAAGC [hsa-mir-22] | -0.0465 | -0.246 | 0.112 | -0.155 | 0.3
CUCACUGCAGAAUUAUUUUGAG [hsa-mir-4524a] | -0.99 | -0.267 | -0.869 | 0.934 | -0.62
GUGUGUUACCUAGAAAUAGCACU [hsa-mir-378a] | -0.118 | -0.165 | -0.282 | -1.11 | -0.283
UUAUUCAGAGAGGCUAGAUCCUCUGUGUUGAGAAGGAUCA [hsa-mir-433] | -0.0231 | 0.23 | -0.151 | 0.503 | -0.385
CUGAACUGGGCUGGGUUGAGCUGGGCUGGGCUGAGUUGAG [hsa-mir-4538] | 2.71 | 5.75 | 3.25 | 1.51 | 4.18
CUUUCCUUUUUGUCUGUACUGGGAAG [hsa-mir-373] | -1.12 | -0.328 | -0.709 | 0.709 | -0.365
GGGCUUUCUGGUUUUAUUUUAAGCCC [hsa-mir-186] | -0.494 | 0.0672 | 0.261 | 0.465 | 0.594
CAAUCAUGUGUAAUUAGAUAUGAUUG [hsa-mir-514b] | -1.33 | -0.732 | -1.38 | 0.559 | -1.06
CAUUGUAAUAGUUCAUAUGGGCACUG [hsa-mir-3660] | 0.0148 | -0.109 | 0.0211 | 2.34 | -0.0141
UGUGACCUGGAGCAGCUCAGGAGGGCUUCCUGGGUGAGGUGGCAGGUUACA [hsa-mir-4311] | 1.69 | 0.183 | 1.08 | 2.01 | 0.566
UAUGAAGGUAAGCAUUUUUGUA [hsa-mir-3935] | -0.419 | -0.263 | -0.614 | -0.00708 | -0.615
CUGAUUCAGAAAGAUCAUCGG [hsa-mir-127] | 0.226 | 0.0704 | -0.346 | -0.634 | -0.444
GGCCCCAGGAAGAAGGGCCUGGUGGAGCC [hsa-mir-6743] | 1.51 | 0.267 | 0.577 | 2.82 | 0.235
